Measured values from publication PMC4728127, “A mutation uncouples the tubulin conformational and GTPase cycles, revealing allosteric control of microtubule dynamics” (eLife, 2015).

T1: wild-type yeast αβ-tubulin (S. cerevisiae, UniProt P09733 1-447; P02557 1-457)
T1 chain 1: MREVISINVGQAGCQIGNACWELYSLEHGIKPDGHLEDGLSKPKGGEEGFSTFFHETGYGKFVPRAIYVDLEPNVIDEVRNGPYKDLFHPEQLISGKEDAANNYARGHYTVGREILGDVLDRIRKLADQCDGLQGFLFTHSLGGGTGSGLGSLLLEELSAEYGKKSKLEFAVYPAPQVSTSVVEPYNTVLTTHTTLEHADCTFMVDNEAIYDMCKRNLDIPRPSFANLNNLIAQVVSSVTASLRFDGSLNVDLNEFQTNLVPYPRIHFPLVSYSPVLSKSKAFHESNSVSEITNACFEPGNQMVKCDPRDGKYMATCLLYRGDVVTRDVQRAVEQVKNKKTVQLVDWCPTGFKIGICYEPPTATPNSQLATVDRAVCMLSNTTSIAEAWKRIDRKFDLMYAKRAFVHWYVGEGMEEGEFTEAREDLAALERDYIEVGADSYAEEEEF
T1 chain 2: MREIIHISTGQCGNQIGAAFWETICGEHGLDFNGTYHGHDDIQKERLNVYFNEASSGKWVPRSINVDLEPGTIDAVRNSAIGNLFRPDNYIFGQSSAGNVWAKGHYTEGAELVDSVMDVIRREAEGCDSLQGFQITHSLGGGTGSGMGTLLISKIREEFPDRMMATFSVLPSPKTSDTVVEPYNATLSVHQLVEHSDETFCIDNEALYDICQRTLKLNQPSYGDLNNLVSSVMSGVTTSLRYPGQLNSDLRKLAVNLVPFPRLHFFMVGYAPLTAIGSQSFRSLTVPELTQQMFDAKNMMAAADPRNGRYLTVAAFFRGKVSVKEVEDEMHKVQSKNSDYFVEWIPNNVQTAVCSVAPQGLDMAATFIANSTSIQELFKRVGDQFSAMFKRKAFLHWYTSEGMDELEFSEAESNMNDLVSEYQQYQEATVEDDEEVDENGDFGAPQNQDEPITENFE


Assays:
[1] = target: T2, wild-type yeast αβ-tubulin (S. cerevisiae, UniProt P09733 1-447; P02557 1-457); assay: TIRF microscopy of Bim1-GFP on microtubules; dynamic microtubules grown from sea urchin axonemes in flow chambers with 1 mM GTP; 5 or 50 nM Bim1-GFP in solution; 30 °C; details: both partners purified
T2 construct: Tub1p, α-tubulin of S. cerevisiae; Ayaz et al., 2012; 2014); Tub2p, β-tubulin of S. cerevisiae; Unpolymerized heterodimer in the AUC; polymerised into microtubules in the Bim1-GFP, growth and sedimentation assays; also called WT; wild-type αβ-tubulin

β:T238A αβ-tubulin [2] = target: T3, β:T238A αβ-tubulin (S. cerevisiae, UniProt P09733 1-447; P02557 1-457, T238A); assay: as above; details: both partners purified
T3 construct: Tub1p, α-tubulin of S. cerevisiae; Tub2p, β-tubulin of S. cerevisiae, with T238A made by QuikChange on the wild-type Tub2 expression plasmid; Unpolymerized heterodimer in the AUC; microtubules in the other assays; also called T238A tubulin; β:T238A microtubules

β:C354A αβ-tubulin = target: T4, β:C354A αβ-tubulin (S. cerevisiae, UniProt P09733 1-447; P02557 1-457, C354A); assay: as above; details: both partners purified
T4 construct: Tub1p, α-tubulin of S. cerevisiae; Tub2p, β-tubulin of S. cerevisiae, with C354A (yeast numbering); The making of the C354A plasmid is not described; Used as microtubules; also called β:C354A microtubules

β:T238A αβ-tubulin [3] = target: β:T238A αβ-tubulin (S. cerevisiae, UniProt P09733 1-447; P02557 1-457, T238A); assay: AUC
[4] = target: T1, wild-type yeast αβ-tubulin; assay: AUC
[5] = target: T2, wild-type yeast αβ-tubulin; assay: AUC; sedimentation velocity, 50,000 rpm, 20 °C, absorbance at 229 nm; 0.15 µM T238A αβ-tubulin with 0.015-5 µM TOG1 or TOG2; RB100 (25 mM Tris pH 7.5, 1 mM MgCl2, 1 mM EGTA, 100 mM NaCl) with 20 µM GTP; analysed with SEDFIT and SEDPHAT; details: both partners purified
β:T238A αβ-tubulin [6] = target: T3, β:T238A αβ-tubulin; assay: as above; details: both partners purified

| binding result [1] | binding result (β:T238A αβ-tubulin [2]) | binding result (β:C354A αβ-tubulin) | Kd (β:T238A αβ-tubulin [3]) | Kd [4] | binding result [5] | binding result (β:T238A αβ-tubulin [6]) | Binder |
| --- | --- | --- | --- | --- | --- | --- | --- |
| binds | binds | binds |  |  |  |  | Bim1-GFP fusion protein (natural protein, yeast, UniProt P40013 1-344, looked up, Bim1p, the yeast EB1 family protein; C-terminal EGFP-tag followed by a Strep-tag II; also called Bim1p; yeast EB1 protein; source: E. coli BL21(DE3), purified (His60 Superflow column, Strep-Tactin Superflow column); not shown: EGFP, C-terminal, kept) MSAGIGESRTELLTWLNGLLNLNYKKIEECGTGAAYCQIMDSIYGDLPMNRVKFNATAEYEFQTNYKILQSCFSRHGIEKTVYVDKLIRCKFQDNLEFLQWLKKHWIRHKDESVYDPDARRKYRPIITNNSATKPRTVSNPTTAKRSSSTGTGSAMSGGLATRHSSLGINGSRKTSVTQGQLVAIQAELTKSQETIGSLNEEIEQYKGTVSTLEIEREFYFNKLRDIEILVHTTQDLINEGVYKFNDETITGHGNGNGGALLRFVKKVESILYATAEGFEMNDGEDELNDKNLGEHGTVPNQGGYANSNGEVNGNEGSNHDVIMQNDEGEVGVSNNLIIDEETF |
|  |  |  | 50 nM | 90 nM | binds | binds | TOG1(1-317) of Stu2p (domain or fragment, yeast, UniProt P46675 1-317, looked up, Stu2p, yeast microtubule polymerase, TOG1 domain, residues 1-317; Plasmid described in Ayaz et al., 2012; 2014; also called Stu2 TOG1 domain) MSGEEEVDYTTLPLEERLTYKLWKARLEAYKELNQLFRNSVGDISRDDNIQIYWRDPTLFAQYITDSNVVAQEQAIVALNSLIDAFASSSLKNAHNITLISTWTPLLVEKGLTSSRATTKTQSMSCILSLCGLDTSITQSVELVIPFFEKKLPKLIAAAANCVYELMAAFGLTNVNVQTFLPELLKHVPQLAGHGDRNVRSQTMNLIVEIYKVTGNNSDLLEEILFKKLKPIQVKDLHKLFAKVGDEPSSSKMLFEWEKRELEKKRSQEEEARKRKSILSNDEGEYQIDKDGDTLMGMETDMPPSKQQSGVQIDTFS |
|  |  |  | 160 nM | 180 nM | binds | binds | TOG2(318-560) of Stu2p (domain or fragment, yeast, UniProt P46675 318-560, looked up, Stu2p, yeast microtubule polymerase, TOG2 domain, residues 318-560; Plasmid described in Ayaz et al., 2012; 2014; also called Stu2 TOG2 domain) MLPEETILDKLPKDFQERITSSKWKDRVEALEEFWDSVLSQTKKLKSTSQNYSNLLGIYGHIIQKDANIQAVALAAQSVELICDKLKTPGFSKDYVSLVFTPLLDRTKEKKPSVIEAIRKALLTICKYYDPLASSGRNEDMLKDILEHMKHKTPQIRMECTQLFNASMKEEKDGYSTLQRYLKDEVVPIVIQIVNDTQPAIRTIGFESFAILIKIFGMNTFVKTLEHLDNLKRKKIEETVKTL |
